Test results reported in patent publication US20240336661A1, “PEPTIDES DERIVED FROM RUMINOCOCCUS TORQUES” (University of Copenhagen, priority 2021, published 2024).

What was measured:
[1] = Insulin biosynthesis, summarised in Example 6; format: cell-based
inguinal fat = assay: Daily intraperitoneal injection of RUCILP2 into chow-fed mice, gene expression in inguinal fat; format: in vivo, mouse; conditions: 1 mg/kg i.p. daily, 7 days, normal chow
Method: FIG. 17. […] No effects on expression of marker genes for lipolysis. Recombinant RUCILP2 was daily injected intraperitoneal at a concentration of 1 mg/kg into 9-week-old wild type C57BL/6N mice for one week. The mRNA levels of indicated genes were analyzed by qRT-PCR. Data were expressed as mean±SEM, *, p<0.05; **, p<0.01; ***, p<0.001, when compared with phosphate-buffered saline (PBS) group, n=9 animals/group.
Mice (20 male wild type C57BL/6N, 8 weeks of age, Janvier) were single-housed at 23±1° C. on a 12-hour light/12-hour dark cycle with access to food and water ad libitum. After 7 days of acclimatization on a standard chow diet (Altromin 1328 diet contains 11% of fat, 24% of protein, and 65% of carbohydrates. This diet is a cereal-based (soy, wheat, corn) fixed formula which is free of alfalfa and fish/animal meal and deficient in nitrosamines) to avoid stress, the mice received daily intraperitoneal injection of 1 mg/kg recombinant RUCILP2, and saline, respectively, for 7 days. All animals were then sacrificed, and subcutaneous fat pads and liver tissue were collected. The mRNA levels of thermogenic genes including Ucp1, Elovl3, Cidea, and Prdm16 as well as lipogenic genes including Acaca and Fasn in inguinal fat were analyzed by qRT-PCR as described below.
RNA extraction and real-time PCR analysis: Total RNA was extracted from tissues using Trizol reagent (Invitrogen) according to the manufacturer's instructions, followed by concentration measurement. 1 μg RNA was transcribed to cDNA using the Reverse Transcription System (Promega). Real-time PCR was performed using the LC480 detection system (Roche Diagnostics) and SYBR Green I Supermix (Takara). Samples were run in duplicate in a single 384-well reaction plate. Data were normalized to the housekeeping Rp136, TBP or GAPDH genes and analyzed according to ΔΔCT method.

perfused rat colon = assay: Hormone release in the isolated perfused rat colon
Description: (§1) FIG. 14. Recombinant RUCILP2 stimulates glucagon like peptide-1 (GLP-1) secretion in perfused rat colon when RUCILP2 is perfused through the luminal route. Left, GLP-1 secretion from the isolated perfused rat colon in the presence of RUCILP2, means±SEM, n=6 in each group. Right, baseline subtracted total GLP-1 output during 10-min (minutes 12-21) luminal infusions. **, p<0.01 using Student's t test.
as §1, with “15.” for “14.”, “Peptide-YY (PYY)” for “glucagon like peptide-1 (GLP-1)”, “PYY” for “GLP-1”
as §1, with “16.” for “14.”, “somatostatin” for “glucagon like peptide-1 (GLP-1)”, “Somatostatin” for “GLP-1”, “*, p<0.05” for “**, p<0.01”
Animals: Male Wistar rats (˜250 g) were obtained from Janvier (Le Genest-Saint-Isle, France) and housed with two to four rats per cage. Rats were allowed one week of acclimatization kept on a 12:12 h light/dark cycle with ad libitum access to water and standard chow.
Isolation and perfusion of the proximal rat colon: At the day of experiment, non-fasted rats were anaesthetized with a subcutaneous injection of Hypnorm/Midazolam (0.0158 mg fentanyl citrate+0.5 mg fluanisone+0.25 mg midazolam/100 g). When lack of reflexes was established, rats were placed on a heating plate (37° C.) and the abdominal cavity opened. […] A plastic tube was placed in the lumen of the colon, and the colon was gently flushed with isotonic saline (room temperature) to remove luminal contents. Throughout the experimental protocol, a constant luminal flow of saline was applied via a syringe pump (0.15 ml/min). […] A metal catheter was inserted into vena portae to collect the venous effluent. […] As an indicator of health of the colon, perfusion pressure was monitored throughout the experiment. […]
Hormone measurement: Peptide hormones were measured using in-house radioimmunoassays: total GLP-1 (the sum of 7-36NH2, 9-36NH2 and potential mid-terminal cleaved fragments) was measured using a C-terminal specific antibody targeting amidated forms of GLP-1 (code no. 89390). Total PYY (PYY1-36+PYY3-36) was measured with a porcine antiserum (cat. no T-4093; Bachem). Somatostatin was measured using a side-viewing antibody (code no. 1758-5), detecting all bioactive forms of somatostatin.

B1: RUCILP2: 87 amino acid irisin-like polypeptide cleaved from the Ruminococcus torques FNDC5-like protein RUMTOR_00181; recombinant, 6-His-tagged from E. coli (protein)
chain: APVDVKVSEITETSAKASWKNAADGKEAAGYNVYVDGVKLNKELLTEASCGLTNLKAETTYFVEVTAVDAAGNESVKSEKVTFKTLK
modifications: 6-His tag; Ruminococcus torques
notes: 87 amino acid irisin-like polypeptide cleaved from the Ruminococcus torques FNDC5-like protein RUMTOR_00181; recombinant, 6-His-tagged from E. coli
[1]
  insulin biosynthesis: stimulates
Inguinal fat
  expression of a gene involved in lipogenesis: reduces expression
  expression of genes involved in thermogenesis: induces expression
  expression of marker genes for lipolysis: No effects
Perfused rat colon; luminal infusion
  gut luminal release of Glucagon-like-peptide-2 (GLP-2): stimulatory effects
Perfused rat colon; luminal perfusion
  GLP-1 secretion: stimulates
  Peptide-YY (PYY) secretion: stimulates
  somatostatin secretion: stimulates
